Reference: paper PMC11574021, “CEP192 localises mitotic Aurora-A activity by priming its interaction with TPX2” (The EMBO Journal, 2024)

Key:
[1] = molecular target: T1, phosphorylated Aurora-A CAKD (Homo sapiens, UniProt O14965, C290A/C393A); experiment: ITC, CEP192 with phosphorylated Aurora-A CAKD; type: binding; details: ratio of Kd, phosphorylated vs unphosphorylated
T1 construct: 10 nM Aurora-A 122–403 C290A C393A phosphorylated protein; His (N, cleaved yes); made in house; host or cells: E. coli B834 (no lambda phosphatase)
T1 sequence (O14965 122-403 C290A/C393A): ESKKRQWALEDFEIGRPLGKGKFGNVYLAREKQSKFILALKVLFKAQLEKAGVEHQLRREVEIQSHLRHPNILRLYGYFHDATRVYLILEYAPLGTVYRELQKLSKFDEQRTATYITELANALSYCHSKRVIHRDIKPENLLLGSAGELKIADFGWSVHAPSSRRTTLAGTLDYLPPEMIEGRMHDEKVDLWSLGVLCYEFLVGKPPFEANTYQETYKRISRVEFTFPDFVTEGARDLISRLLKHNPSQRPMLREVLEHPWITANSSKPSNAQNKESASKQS
Method: (§1) Thermodynamic information was established using the ITC200 microcalorimeter (MicroCal, Northampton, MA). Proteins were dialysed overnight into 20 mM tris pH 7.5, 200 mM NaCl, 10% glycerol, 5 mM magnesium chloride (CEP192 constructs/mutants and Aurora-A 122–403 mutants). Experiments were carried out at 25 °C. The syringe contained 70 μl of 250 μM Aurora-A 122–403 (D274N C290A C393A or mutant). About 2 μl injections were applied every 180 s. The cell contained 205 μl of 25 μM CEP192 construct/mutant. Microcal Origin software version 7.0 was used to determine the dissociation constants (Kd). All measurements were repeated at least twice.

[2] = molecular target: T1, phosphorylated Aurora-A CAKD; experiment: ADP-Glo kinase assay, kemptide substrate; type: biochemical; details: ADP-Glo, phosphorylated Aurora-A CAKD, kemptide; in words
Method: Reactions were initiated by the addition of 10 μM ATP and 100 μM kemptide as substrate (Cambridge Bioscience Ltd). The reactions were incubated at room temperature for 60 min before 5 μl was transferred into 5 ul of ADP-Glo Reagent (Promega) in a 384-well low volume low binding plate (Greiner Bio-one). After a further 40 min at room temperature, 10 μl of kinase detection reagent was added to each well, and the reaction was allowed to incubate for an additional 30 min. Luminescence was measured on a HIDEX Sense plate reader (HIDEX) using a 1 s integration time. Control data was subtracted from the luminescence and three repeats were averaged before being fitted to a sigmoidal plot using Origin (OriginLab), where IC50 and EC50 values were calculated.

[3] = molecular target: T2, unphosphorylated Aurora-A CAKD (Homo sapiens, UniProt O14965, C290A/C393A); experiment: Fluorescence anisotropy competition with FAM-CEP192 501-533, unphosphorylated Aurora-A; type: binding
T2 construct: 10 μM Aurora-A kinase domain (phosphorylated or unphosphorylated C290A C393A 122–403); His (N, cleaved yes); made in house; host or cells: E. coli RIL, co-expressed with lambda phosphatase
T2 sequence (O14965 122-403 C290A/C393A): T1 sequence (O14965 122-403 C290A/C393A)
Method: (§2) Assays were performed in 25 mM HEPES pH 7.5, 150 mM NaCl, 2 mM DTT, 5 mM MgCl2, 0.01% Tween 20. For CEP192 and TPX2 competition assays 10 μM Aurora-A kinase domain (phosphorylated or unphosphorylated C290A C393A 122–403) was preincubated on ice with 100 nM FAM-TPX2 7-43 or 100 nM FAM-CEP192 501–533. For TACC3 competition, due to weaker binding, 25 μM Aurora-A kinase domain (phosphorylated or unphosphorylated C290A C393A 122–403) was preincubated with 100 nM FAM-TACC3 522-536. Serial dilutions of competitor (CEP192) were performed in triplicate into a low volume 384-well black plate, before the premixed Aurora-A and tracer were added. A control row included no tracer. Plates were left incubating for 1 h at room temperature before the fluorescence anisotropy was measured using a HIDEX plate reader, with excitation at 485 nm and emission at 535 nm. For direct binding experiments, the assay was performed as above, but the Aurora-A (122–403 C290A C393A or point mutants) was diluted across the plate from high to low concentration, before the addition of 50 nM tracer (FAM-CEP192 501–533) to three replicate rows. Buffer only was added to the control row.
(§3) Fluorescence anisotropy data were processed using Microsoft Excel to calculate intensity and anisotropy using the equation listed in (Yeo et al, [2013]). The IC50 and Kd values were calculated using Origin (OriginLab) where the data fitted to a sigmoid and are summarised in Appendix Table S3.

Aurora-A KD F165D/R205A = experiment: ITC, CEP192 with Aurora-A KD F165D/R205A; type: binding, human; details: 25 °C, pH 7.5
Method: as §1

[4] = molecular target: T2, unphosphorylated Aurora-A CAKD; experiment: Fluorescence anisotropy competition with FAM-TPX2 7-43; type: binding; details: for IC50: competition with 100 nM FAM-TPX2 7-43, 10 μM unphosphorylated Aurora-A CAKD, n = 3 (Appendix Fig. S4E)
Method: as §2, §3

[5] = molecular target: T1, phosphorylated Aurora-A CAKD; experiment: Fluorescence anisotropy competition with FAM-CEP192 501-533, phosphorylated Aurora-A; type: binding; details: competition with 100 nM FAM-CEP192 501-533, 10 μM phosphorylated Aurora-A CAKD, n = 3
Method: as §2, §3

Aurora-A CAKD = molecular target: T3, Aurora-A CAKD (Homo sapiens, UniProt O14965, C290A/C393A); experiment: Fluorescence anisotropy competition with FAM-TACC3 522-536; type: binding; details: in words
T3 construct: 25 μM Aurora-A kinase domain (phosphorylated or unphosphorylated C290A C393A 122–403); His (N, cleaved yes); made in house; host or cells: E. coli
T3 sequence (O14965 122-403 C290A/C393A): T1 sequence (O14965 122-403 C290A/C393A)
Method: as §2, with “For direct binding experiments, the assay was performed as above, but the Aurora-A (122–403 C290A C393A or point mutants) was diluted across the plate from high to low concentration, before the addition of 50 nM tracer (FAM-CEP192 501–533) to three replicate rows. Buffer only was added to the control row.” left out
as §3

B1: CEP192 468-533: recombinant human CEP192 aa 468–533, minimal binding region (protein)
chain: PQSVVYQNEEGRWVTDLAYYTSFNSKQNLNVSLSDEMNEDFRSGSEAFDLIAQDEEEFNKEHQFIQ
modifications: left off: His6, N-terminal, cleaved | SUMO, N-terminal, cleaved
For B1, the “difference in affinity compared to unphosphorylated Aurora-A” value [1] was “around a twofold difference in affinity”, the “effect on Aurora-A kinase activity” value [2] was “partially inhibited the activity” and the IC50 ([3]; competition with 100 nM FAM-CEP192 501-533, 10 μM unphosphorylated Aurora-A CAKD, n = 3) was 1.42 µM. For the same molecule, the “ability to compete for binding, phosphorylated vs unphosphorylated Aurora-A” value ([3]; competition with FAM-CEP192 501-533, in words) was “No significant difference”, the Kd (Aurora-A KD F165D/R205A) was 26 ± 16 µM and the IC50 [4] was 3.24 µM. For the same molecule, the IC50 ([4]; listed as WT CEP192) was about 4 µM, the “competition for binding with FAM-TPX2 7-43” value ([4]; in words, Aurora-A CAKD) was “competed for binding with FAM-TPX2_7-43” and the IC50 [5] was 0.63 µM. The “competition for binding with FAM-TACC3 522-536” value (Aurora-A CAKD) was “competed for binding with FAM-TACC3_522-536”.
